Literature values, collected in paper PMC6767322.
pKd: −log10 of the molar value.

Target: IL-2Rβ/γc (Homo sapiens) (UniProt P14784)
Sequence of UniProt P14784 (P14784 27-240, chain 1 of 2): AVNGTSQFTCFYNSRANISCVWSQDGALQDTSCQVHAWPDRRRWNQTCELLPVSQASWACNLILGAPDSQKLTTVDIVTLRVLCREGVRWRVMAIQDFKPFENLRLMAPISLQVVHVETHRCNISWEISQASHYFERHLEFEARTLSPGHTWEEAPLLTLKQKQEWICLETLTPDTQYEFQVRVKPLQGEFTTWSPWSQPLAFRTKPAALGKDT
Sequence of UniProt P14784 (P31785 23-262, chain 2 of 2, further chain): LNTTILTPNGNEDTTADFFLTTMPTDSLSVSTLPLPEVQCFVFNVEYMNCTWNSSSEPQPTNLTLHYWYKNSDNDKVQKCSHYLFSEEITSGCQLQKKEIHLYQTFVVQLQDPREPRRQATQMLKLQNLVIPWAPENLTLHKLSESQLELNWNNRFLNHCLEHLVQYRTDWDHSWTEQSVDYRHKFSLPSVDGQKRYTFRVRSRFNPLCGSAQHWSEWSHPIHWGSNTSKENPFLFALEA

- pKd: 7.52
Substance: IL-15 (from UniProt P40933)
